This is an account of results in PMC6476477, “A DNA aptamer reveals an allosteric site for inhibition in metallo-β-lactamases”.

What all share (conditions): protein: recombinant; tags: none stated; hairpin (M-fold predicted)
Data set [1] has as its target T1, 5/B/6 metallo-beta-lactamase (MBL) wild type (Bacillus cereus 5/B/6, UniProt P14488 30-256).
T1 sequence: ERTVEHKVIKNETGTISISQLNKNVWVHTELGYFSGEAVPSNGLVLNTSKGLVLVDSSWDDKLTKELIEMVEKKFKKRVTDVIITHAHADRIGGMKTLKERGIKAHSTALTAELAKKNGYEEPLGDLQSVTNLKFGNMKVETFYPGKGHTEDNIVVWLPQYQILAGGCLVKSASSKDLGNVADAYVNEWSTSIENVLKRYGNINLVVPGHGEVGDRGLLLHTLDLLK
In words: NMR 1H-15N HSQC titration; 750 uM enzyme, 0-4 eq 10-mer; range of fits for Lys78, Lys104, Lys107; 1 mM Zn2+ (NMR buffer); NMR: 20 mM MOPS, 1 mM ZnSO4, pH 7, 25 C (buffer stated for assignment sample; titration at 25 C); kinetic assay buffer not in the material.

The target of data set [2] is T1, 5/B/6 metallo-beta-lactamase (MBL) wild …. The data set is described as follows: enzyme inhibition; cefuroxime substrate; NMR: 20 mM MOPS, 1 mM ZnSO4, pH 7, 25 C (buffer stated for assignment sample; titration at 25 C); kinetic assay buffer not in the material.
For data set [3] the target is unchanged. The data set is described as follows: enzyme inhibition kinetics (uncompetitive KI'); cefuroxime substrate; NMR: 20 mM MOPS, 1 mM ZnSO4, pH 7, 25 C (buffer stated for assignment sample; titration at 25 C); kinetic assay buffer not in the material.

B1: 10-mer DNA aptamer (structured_DNA)
DNA: CCAAACTTGG
The Kd is the equilibrium constant for the complex coming apart. In general, IC50 refers to the midpoint of a concentration-inhibition curve. What is called Ki is the dissociation constant of the complex between target and ligand, obtained from inhibition or displacement. Turning to B1, in data set [1], the Kd was 153 nM. The IC50 in data set [2] was 120 ± 5 nM. Also, the inhibition constant Ki in data set [3] is 63 ± 3 nM.
